The values that follow come from article PMC3821618.

For the assay, the target named is TagRFP-T (Entacmaea quadricolor). The assay can be described thus: fluorescence correlation spectroscopy (FCS), molecular brightness analysis; live transfected mouse GHFT1 cells, cytosol; molecular brightness Mb = CPS/(N*Po) from one-component autocorrelation fits, compared with published intrinsic brightness and between FP alone and FP-BZip; 561 nm excitation, 36 °C, 5% CO2.

For the substance TagRFP-T, the fraction of the molecules that are dimers worked out at 30%.
